± gives the uncertainty stated by the source.
B1: Ubiquitin-protein ligase residues 30 to 86; numbered along this chain, Q05086 (parent)
chain: KHLIERYYHQLTEGCGNEACTNEFCASCPTFLRMDNNAAAIKALELYKINAKLCDPH
B2: Zinc finger homeobox protein 4, residues 2086 to 2141; numbered along this chain, Q86UP3 (parent)
chain: RPRTRITDDQLKILRAYFDINNSPSEEQIQEMAEKSGLSQKVIKHWFRNTLFKERQ

Variants of: B1
Assay: abundance fitness (aPCA) (normalised: wild type 0, dead -1); higher = more abundant; growth selection in yeast, the domain comes from the species named
Conditions: Homo sapiens
KHLIERYYHQLTEGCGNEACTNEFCASCPTFLRMDNNAAAIKALELYKINAKLCDHH [P56H] gave an abundance fitness of -0.22 ± 0.11. KHLIERYYHQLTEGCGNEACTNEFCASCPTFLRMDNNAAAIKALELYKINAKLCDLH [P56L] showed an abundance fitness of 0.044 ± 0.065. In the case of KHLIERYYHQLTEGCGNEACTNEFCASCPTFLRMDNNAAAIKALELYKINAKLCDYH [P56Y], the abundance fitness is reported as -0.049 ± 0.19. KHLIERYYHQLTEGCGNEACTNEFCASCPTFLRMDNNAAAIKALELYKINAKLCDCH [P56C] showed an abundance fitness of -0.041 ± 0.11. With KHLIERYYHQLTEGCGNEACTNEFCASCPTFLRMDNNAAAIKALELYKINAKLCDWH [P56W] the abundance fitness was -0.038 ± 0.096. Variant KHLIERYYHQLTEGCGNEACTNEFCASCPTFLRMDNNAAAIKALELYKINAKLCDQH [P56Q] has an abundance fitness of -0.068 ± 0.12. KHLIERYYHQLTEGCGNEACTNEFCASCPTFLRMDNNAAAIKALELYKINAKLCDFH [P56F] showed an abundance fitness of 0.098 ± 0.17. For KHLIERYYHQLTEGCGNEACTNEFCASCPTFLRMDNNAAAIKALELYKINAKLCDKH [P56K], the abundance fitness was -0.055 ± 0.13. With KHLIERYYHQLTEGCGNEACTNEFCASCPTFLRMDNNAAAIKALELYKINAKLCDRH [P56R] the abundance fitness was 0.023 ± 0.065. For KHLIERYYHQLTEGCGNEACTNEFCASCPTFLRMDNNAAAIKALELYKINAKLCDDH [P56D], the abundance fitness was -0.035 ± 0.11. With KHLIERYYHQLTEGCGNEACTNEFCASCPTFLRMDNNAAAIKALELYKINAKLCDGH [P56G] the abundance fitness was 0.024 ± 0.069. Work on KHLIERYYHQLTEGCGNEACTNEFCASCPTFLRMDNNAAAIKALELYKINAKLCDTH [P56T] yielded an abundance fitness of 0.016 ± 0.11. Variant KHLIERYYHQLTEGCGNEACTNEFCASCPTFLRMDNNAAAIKALELYKINAKLCDSH [P56S] has an abundance fitness of -0.081 ± 0.082. With KHLIERYYHQLTEGCGNEACTNEFCASCPTFLRMDNNAAAIKALELYKINAKLCDAH [P56A] the abundance fitness was -0.035 ± 0.064. In the case of KHLIERYYHQLTEGCGNEACTNEFCASCPTFLRMDNNAAAIKALELYKINAKLCRPH [D55R], the abundance fitness is reported as -0.118 ± 0.066. KHLIERYYHQLTEGCGNEACTNEFCASCPTFLRMDNNAAAIKALELYKINAKLCTPH [D55T] gave an abundance fitness of -0.087 ± 0.085. With KHLIERYYHQLTEGCGNEACTNEFCASCPTFLRMDNNAAAIKALELYKINAKLCWPH [D55W] the abundance fitness was -0.106 ± 0.074. KHLIERYYHQLTEGCGNEACTNEFCASCPTFLRMDNNAAAIKALELYKINAKLCSPH [D55S] gave an abundance fitness of -0.059 ± 0.068. KHLIERYYHQLTEGCGNEACTNEFCASCPTFLRMDNNAAAIKALELYKINAKLCQPH [D55Q] showed an abundance fitness of 0.011 ± 0.08. For KHLIERYYHQLTEGCGNEACTNEFCASCPTFLRMDNNAAAIKALELYKINAKLCYPH [D55Y], the abundance fitness was -0.159 ± 0.086. In the case of KHLIERYYHQLTEGCGNEACTNEFCASCPTFLRMDNNAAAIKALELYKINAKLCVPH [D55V], the abundance fitness is reported as -0.012 ± 0.057. KHLIERYYHQLTEGCGNEACTNEFCASCPTFLRMDNNAAAIKALELYKINAKLCDPY [H57Y] showed an abundance fitness of 0.017 ± 0.074. In the case of KHLIERYYHQLTEGCGNEACTNEFCASCPTFLRMDNNAAAIKALELYKINAKLCDPK [H57K], the abundance fitness is reported as -0.092 ± 0.43. KHLIERYYHQLTEGCGNEACTNEFCASCPTFLRMDNNAAAIKALELYKINAKLCDPP [H57P] gave an abundance fitness of -0.006 ± 0.1. For KHLIERYYHQLTEGCGNEACTNEFCASCPTFLRMDNNAAAIKALELYKINAKLCDPS [H57S], the abundance fitness was -0.268 ± 0.14. KHLIERYYHQLTEGCGNEACTNEFCASCPTFLRMDNNAAAIKALELYKINAKLCDPC [H57C] showed an abundance fitness of 0.175 ± 0.2. KHLIERYYHQLTEGCGNEACTNEFCASCPTFLRMDNNAAAIKALELYKINAKLCDPI [H57I] showed an abundance fitness of -0.408 ± 0.43. In the case of KHLIERYYHQLTEGCGNEACTNEFCASCPTFLRMDNNAAAIKALELYKINAKLCDPE [H57E], the abundance fitness is reported as -0.505 ± 0.35. KHLIERYYHQLTEGCGNEACTNEFCASCPTFLRMDNNAAAIKALELYKINAKLCDPG [H57G] showed an abundance fitness of 0.013 ± 0.16. KHLIERYYHQLTEGCGNEACTNEFCASCPTFLRMDNNAAAIKALELYKINAKLCDPV [H57V] gave an abundance fitness of 0.173 ± 0.19. KHLIERYYHQLTEGCGNEACTNEFCASCPTFLRMDNNAAAIKALELYKINAKLCDPA [H57A] gave an abundance fitness of -0.022 ± 0.15. In the case of KHLIERYYHQLTEGCGNEACTNEFCASCPTFLRMDNNAAAIKALELYKINAKLCDPD [H57D], the abundance fitness is reported as -0.051 ± 0.13. With KHLIERYYHQLTEGCGNEACTNEFCASCPTFLRMDNNAAAIKALELYKINAKLCDPR [H57R] the abundance fitness was -0.052 ± 0.11. KHLIERYYHQLTEGCGNEACTNEFCASCPTFLRMDNNAAAIKALELYKINAKLCDPT [H57T] gave an abundance fitness of 0.109 ± 0.16. For KHLIERYYHQLTEGCGNEACTNEFCASCPTFLRMDNNAAAIKALELYKINAKLCDPQ [H57Q], the abundance fitness was 0.009 ± 0.22. With KHLIERYYHQLTEGCGNEACTNEFCASCPTFLRMDNNAAAIKALELYKINAKLCDPF [H57F] the abundance fitness was 0.076 ± 0.26. In the case of KHLIERYYHQLTEGCGNEACTNEFCASCPTFLRMDNNAAAIKALELYKINAKLCDPW [H57W], the abundance fitness is reported as -0.348 ± 0.23. KHLIERYYHQLTEGCGNEACTNEFCASCPTFLRMDNNAAAIKALELYKINAKLCDPN [H57N] showed an abundance fitness of 0.104 ± 0.16.

Variants of: B2
Assay: as above
Conditions: Homo sapiens
APRTRITDDQLKILRAYFDINNSPSEEQIQEMAEKSGLSQKVIKHWFRNTLFKERQ [R1A] showed an abundance fitness of -0.327 ± 0.37. Work on LPRTRITDDQLKILRAYFDINNSPSEEQIQEMAEKSGLSQKVIKHWFRNTLFKERQ [R1L] yielded an abundance fitness of -0.101 ± 0.2. For HPRTRITDDQLKILRAYFDINNSPSEEQIQEMAEKSGLSQKVIKHWFRNTLFKERQ [R1H], the abundance fitness was -0.211 ± 0.25. For YPRTRITDDQLKILRAYFDINNSPSEEQIQEMAEKSGLSQKVIKHWFRNTLFKERQ [R1Y], the abundance fitness was -0.157 ± 0.19. NPRTRITDDQLKILRAYFDINNSPSEEQIQEMAEKSGLSQKVIKHWFRNTLFKERQ [R1N] showed an abundance fitness of 0.247 ± 0.12. For VPRTRITDDQLKILRAYFDINNSPSEEQIQEMAEKSGLSQKVIKHWFRNTLFKERQ [R1V], the abundance fitness was -0.21 ± 0.23. In the case of PPRTRITDDQLKILRAYFDINNSPSEEQIQEMAEKSGLSQKVIKHWFRNTLFKERQ [R1P], the abundance fitness is reported as -0.512 ± 0.22. In the case of FPRTRITDDQLKILRAYFDINNSPSEEQIQEMAEKSGLSQKVIKHWFRNTLFKERQ [R1F], the abundance fitness is reported as -0.327 ± 0.27. TPRTRITDDQLKILRAYFDINNSPSEEQIQEMAEKSGLSQKVIKHWFRNTLFKERQ [R1T] gave an abundance fitness of -0.131 ± 0.12.
